Source: US20190264171A1, “DIFFERENTIATION OF PLURIPOTENT STEM CELLS INTO CORNEAL CELLS” (TAMPEREEN YLIOPISTO, priority 2016, published 2019)

System: human pluripotent stem cells cultured in feeder free conditions
Test: Corneal epithelial differentiation of pluripotent stem cells cultured in feeder free conditions
Type: cell-based
Description: Feeder-free culture, xeno-free culture of human pluripotent stem cells was based on the use of recombinant Laminin-521 (Biolamina, Sweden) extracellular matrix protein coating and defined, xeno-free culture medium, the Essential 8™ Flex Medium (Life Technologies). The pluripotent stem cells were transferred to the culture system from the standard feeder cell based culture system by manually cutting undifferentiated colony parts with scalpel and plating to ln-521 coated (0.75-1.8 μg/cm^2 overnight at +4° C.) culture plates. The cells are allowed to grow near confluency with medium changed 3-4 times a week, and passaged with TrypLE™ Select Enzyme as single cells twice a week.
Differentiation of pluripotent stem cells cultured on feeder cells to corneal epithelial cells with the induction method disclosed in EP 2828380 comprising TGF-beta inhibitor, Wnt inhibitor and a fibroblast growth factor (10 μM SB-505124+10 μM IWP-2, 50 ng/ml bFGF), followed by differentiation in Cnt-30 epithelial medium on collagen IV matrix, yielded at best >90% p63 positive cells with correct corneal epithelial morphology.
However, prominent neuronal differentiation and cell detachment was recurrently observed as the induction method disclosed in EP 2828380 was used.
The human pluripotent stem cells cultured in the feeder free culture system as described above were differentiated to corneal epithelial cells by detaching the pluripotent cells with TrypLE™ Select Enzyme for 4 min at +37° C. On Day 0, embryoid bodies were created with overnight incubation with 5 μM Blebbistatin (Sigma, B05601) or 10 μM Y-27632 dihydrochloride (R&D Systems, 1254) in a xeno-free culture medium containing: Knockout-Dulbecco's Modified Eagle's Medium (ko-DMEM) supplemented with 15% Xeno-Free Knockout Serum Replacement (XF-ko-SR), 2 mM GlutaMax (all from ThermoFisher Scienfic), 1% MEM Eagle Non-Essential Amino acid solution (NEAA, Cambrex Bio Science), 50 U/ml penicillin/streptomycin (Cambrex Bio Science), 0.1 mM ß-mercaptoethanol (ThermoFisher Scienfic). […]

Molecule	cell survival on omitting the substance from the first phase induction medium (IWP-2 omitted from induction medium, collagen IV + laminin-521 matrix)	corneal epithelial cell morphology and marker expression (25 ng/ml BMP-4 for 2 to 3 days after initial induction)	epithelial morphology and marker expression after additional induction (BMP-4 induction (induction phase 3) after SB-505124/bFGF induction, total of 20-30 days of differentiation)
Cc1ccc2nc(NC(=O)CSc3nc4c(c(=O)n3-c3ccccc3)SCC4)sc2c1 [IWP-2, reference compound]	notably enhanced cell survival	–	–
BMP-4: bone morphogenetic protein 4 (Peprotech) (protein, UniProt P12644 293-408, looked up) Bone morphogenetic protein 4: SPKHHSQRARKKNKNCRRHSLYVDFSDVGWNDWIVAPPGYQAFYCHGDCPFPLADHLNSTNHAIVQTLVNSVNSSIPKACCVPTELSAISMLYLDEYDKVVLKNYQEMVVEGCGCR	–	best result of most cells with correct corneal epithelial cell morphology and marker expression	best result with most cells having correct epithelial morphology and marker expression
